Test results published in the DeepSol protein solubility set.

Assay: soluble on expression in E. coli; label from the status in PepcDB or PDB records

Sequence | soluble on expression in E. coli
GMGSSRKVIITCAVTGAIHTPSMSPYLPVTPDEVAQASIGAAEAGAAVIHLHARDPRDGRPTQDPAAFAEFLPRIKSNTDAVINLTTGGSPHMTVEERLRPATHYMPELASLNMGSMNFGLYPMLERFKEFAHGWEREHLERSRDLVFKNTFADIEFILKTCGGNGTRFEFECYDTSHLYNLAHFVDRKLATPPFFVQTVFGLLGGIGPHPEDLAHMRRTADRLFGADYVWSILGAGRHQIPLASIGAAQGANVRVGLEDSLWIAPGELAETNAAQVRKIRQVIEGLSLEVASPAEARTMLGLKGPQNVNF | soluble
GMHHQRKTHVDNNIAAVELAKAYRLLNHGPTVLVSARSQGIDNVMAAAWCCALDFAPPKLTVVLDKMTKTREFIEQSGMFVIQVPTVAQLQLTHRVGSQSLADDANKLLNCGVELFEMAGHDLPFVAGCSAWLACKLIPEPNNQLQYDLFIAEVIGAWADTQVFNHGHWHFDTAPADKRSLHYIAGGQFYAIGESFNAD | soluble
GMHSAALLQKVDELPRLPKAIAELLDVVNNEDSTVKAVSEKLSHDPVLSARVLRLANSARFGCSREVGTIDDAVVRLGMQTLRTLVIASAVVGAVPKVEGFDLADFWGNTFEVAIICQELAKRLGTLPEEAFTCGILHSIGELLIVNGDPAVAATISAAVADGADRNLMEKELLGYDNAEIGALLAQSWKFTPHLVKGIQFQNHPKSAEPYSKLAGMLAMAKQIAADWDKIPDDERTSWLAQINILAGIKVDLGGLAEKLAKMHGQGMEMGKQLA | soluble
GMKAADFTYVTVHGDNSRMSRLKAQYTMLFFYDPDCSNCRKFEKLFAEIPAFVEMVENGTLRVLAIYPDENREEWATKAVYMPQGWIVGWNKAGDIRTRQLYDIRATPTIYLLDGRKRVILKDTSMEQLIDYLATQAG | not soluble
GMLAETDEYMAGGKRPARVYRVVNGIAVLPVTGTLVHRLGGMRPFSGMTGYDGIVACLQQAMADSQVRGILLDIDSPGGQAAGAFDCADMIYRLRQQKPVWALCNDTACSAAMLLASACSRRLVTQTSRIGSIGVMMSHVSYAGHLAQAGVDITLIYAGAHKVDGNQFEALPAEVRQDMQQRIDAARRMFAEKVAMYTGLSVDAVTGTEAAVFEGQSGIEAGLADELINASD | not soluble
GMLFESINTGCLDGNDTPWMPFAPYSNDVMVKYFKIDPVRGETITLLKAPAGMEMPRHHHTGTVIVYTVQGSWRYKEHDWVAHAGSVVYETASTRHTPQSAYAEGPDIITFNIVAGELLYLDDKDNIIAVENWKTSMDRYLNYCKAHGIRPKDLSTFEG | soluble
GMNLDSYERTGLRVSLDLVNIATPGSRRGTPHTGGCVIEDLHDLLKDDPASVAQLGDDHVEGFVELARLLHTAIDALSNGQVATAATALNHLLRKHPATPELAQDPDGTWRLHHHPLDAELVPMWTAICAEGLAREIGHQNVRRFGICNAHRCDRVYFDTSRNGTRQYCSLACQNRVKAAAFRERRAT | soluble
GMNQRDVILDCEKKLLTAIQNNDVESLEVLLHDDLLFIIPSGETVTKETDIAAYSSGKIALRAVVPSDYIIRIIHDTVVVSVNIEIKGEYMEHTLDNTFRYLRVWKLFDGNWKVIAGSCTAIG | soluble
GMPTFNPELHAQTLNSERAYFVQPDADPAFTPHIGALVEMLTYARLTTLQAVEGLPEDQLWATAPGFANSIGTLLAHIAAVERVYHVLSFQGRDVTPEDDGAAYWGLTMGKEGTAPARLPTLDELRAELADARAETLRVFAAKDDAWLAEPLGPGWANQHWAWFHVMEDEVNHRGQLRLLRQVLAPEEGG | soluble
GMSESCILFFVKYPEPGKVKTRLGEVVGNDKAAMLYRHFVQDMLQGLARLHADLHICYVPGDADLPEKFKAWLGPQHMFAAQQGLDLGERMKHAMQKAFDDGYDRVVLMGSDIPDYPCELVQKALNDLQHYDAAIGPAFDGGYYLIGFRKDSFCPDVFDGIRWGEADVYQPTVEKMRRARLEVLQLPDWNDVDTVWDLNVLYRTNKNSSFRRSSTYALLRENDALIRQYDIDLPGMAPVEKE | soluble
GMSQTTVVNGVNVDQLMATIEQIKAKPEIAQFKFRATNQWMGGTHNQATIKDFYGACAEDDTRKPMVFDLDEPPVLLGENRGANPVEYLLVALSGCLTTSLVAHAAARGIALRGVKSRYEGDIDLRGFLGLSEEVPVGYREIRVFFSIDADLTDGQKEELIRMAQKYSPVYNTVAKPVPVAVLLDRG | soluble
GMSSSGTSITCEVGLQLIVPDRAPVPLVARLDYSVDDPYAIRAAFHVGDDEPVEWIFARELLTVGIIRETGEGDVRIWPSQDGKERMVNIALSSPFGQARFHAQVAPLSEFLHRTYELVPAGQESDYIDIDAEIAEHLS | soluble
GMTDQSVRIIEAALRLYMKKPPHEVSIEEIAREAKVSKSLIFYHFESKQKLLEEAVMHAFRKMMEEFNPRSVEEVVDYGIGFIAERREFIEFMMYALSQVRIEELERMFGEALEKVASLFEGCRHPRETAIALMAMLDGLSIYSLYFDLGKLEKYREIAMEFVESRRVRA | soluble
GMVKDKNDVGPKTVAILGAGGKMGARITRKIHDSAHHLAAIEIAPEGRDRLQGMGIPLTDGDGWIDEADVVVLALPDNIIEKVAEDIVPRVRPGTIVLILDAAAPYAGVMPERADITYFIGHPCHPPLFNDETDPAARTDYHGGIAKQAIVCALMQGPEEHYAIGADICETMWSPVTRTHRVTTEQLAILEPGLSEMVAMPFVETMVHAVDECADRYGIDRQAALDFMIGHLNVEIAMWFGYSPKVPSDAALRLMEFAKDIVVKEDWREALNPAKVKQAAELIAGK | soluble
GMVTTRKPLRAAIIGLGRLGERHARHLVNKIQGVKLVAACALDSNQLEWAKNELGVETTYTNYKDMIDTENIDAIFIVAPTPFHPEMTIYAMNAGLNVFCEKPLGLDFNEVDEMAKVIKSHPNQIFQSGFMRRYDDSYRYAKKIVDNGDIGKIIYMRGYGIDPISGMESFTKFATEADSGGIFVDMNIHDIDLIRWFTGQDPVQAYGLTSNIAAPQLADIGEFETGVAQLKMSDGVIATLIGGRHAAHGNQVELEVMGSNGWVRIGEHPDLNRVTVFNDQGVVRPSLQSFGERFDTAFTDEVQDFVNNVIVGKQPEVTVDDGIKALKIAKACQQSANIGKLVDIQL | soluble
GNSITSATDEQPHIGNYRLQKTIGKGNFAKVKLARHVLTGREVAVKIIDKTQLNPTSLQKLFREVRIMKILNHPNIVKLFEVIETEKTLYLVMEYASGGEVFDYLVAHGRMKEKEARAKFRQIVSAVQYCHQKYIVHRDLKAENLLLDGDMNIKIADFGFSNEFTVGNKLDTFCGSPPYAAPELFQGKKYDGPEVDVWSLGVILYTLVSGSLPFDGQNLKELRERVLRGKYRIPFYMSTDCENLLKKLLVLNPIKRGSLEQIMKDRWMNVGHEEEELKPYTEPDPDFNDTKRIDIMVTMGFARDEINDALINQKYDEVMATYILLGRK | soluble
GPDFNWTSVLNLTHNRNKIVALDGDIKQSVEGSWFIHKIGLPYNSFYVKEFAGVDPSTGKGLYYLNTQDEKGNYNREMTDDASKAQAIPYKSADPKISGGFTNILSYKWFDLGLTFTYSLGGYSFDKTGTLIETDGSKEKSYNLPVYALDRWQKPGDRTDVPRFVLEQGAGPQNSSRYIHSTDHIRLKNLTLGFTLPGRWVQKALIENARVYFSGSNLLTWAKWKQYDPEVPVNGEVFCEAPPMRTFNFGVEITF | not soluble
GPGSMADSNPTKEGTSSAPLHPLKDKWFVFYIPASKGNEYEHETKELGYVSTIEEVYSTINTLPPITLLPNDDNLVFSRNKIEPQFESFPGGMRFSIFCKTKTQCREALTYVVAVVLGEAIGRDACKGECVCDIVRIGHKGSAMYKESVRIEVWAHQSPYNTAMEKYLVSTLSAIPGITVSARPFK | soluble
GPGSMARNKIALIGSGMIGGTLAHLAGLKELGDVVLFDIAEGTPQGKGLDIAESSPVDGFDAKFTGANDYAAIEGADVVIVTAGVPRKPGMSRDDLLGINLKVMEQVGAGIKKYAPEAFVICITNPLDAMVWALQKFSGLPAHKVVGMAGVLDSARFRYFLSEEFNVSVEDVTVFVLGGHGDSMVPLARYSTVAGIPLPDLVKMGWTSQDKLDKIIQRTRDGGAEIVGLLKTGSAFYAPAASAIQMAESYLKDKKRVLPVAAQLSGQYGVKDMYVGVPTVIGANGVERIIEIDLDKDEKAQFDKSVASVAGLCEACIGIAPSLK | soluble
